Assay results: the RNAGym collection of RNA variant scans (doi:10.1073/pnas.2313332121)

B1: TPR t1 (parent)
chain: GACCAAUCUGCCCUCAGAGCUCGAGAACAUCUUCGGAUGCAGAGGAGGCAGGCUUCGGUGGCGCGAUAGCGCCAACGUCCUCAACCUCCAAUGCAUCCCACCACAUGAUGAUGCCUGAAGAGCCUUGGUUUUUUG

Variants of: B1
Assay: polymerase ribozyme fitness, log enrichment relative to wild type (log ratio); higher = more active; in vitro selection for triplet polymerase activity
Method in brief: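 A single round of triplicate in vitro selection, including frozen incubation at −7 °C, was applied to PCR-built, transcribed mutant libraries of each subunit of a heterodimeric triplet polymerase ribozyme. Illumina sequencing of input and output libraries retained genotypes with ≥10 input reads and ≥1 read per output. Fitness is the base-2 logarithm of genotype enrichment divided by wild-type enrichment, from inverse-variance-weighted replicate averages.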
For GACCAAUCUGCCCUCAGAGCCCGAGAACAUCUUCGGAUGCAGAGGAGGCAGGCUUCGGUGGCGCGAUAGCGCCAACGUCCUCAACCUCCCAUGCAUCCCACCACAUGAUGAUGCCUGAAGAGCCUUGGUUUUUUG [U21C A90C], the “polymerase ribozyme fitness (log ratio)” value was -1.17. For GACCAAUCUGCCCUCAGAGCGCGAGAACAUCUUCGGCUGCAGAUGAGGCAGGCUUCGGUGGCGCGAUAGCGCCAACGUCCUCAACCUCCAAUGCAUCCCACCACAUGAUGAUGCCUGAAGAGCCUUGGUUUUUUG [U21G A37C G44U], the “polymerase ribozyme fitness (log ratio)” value was -3.59. For GACCAAUCUGCCCUCAGAGCCAGAGAACAUCUUCGGAUGCAGCGGAGGCAGGCUUCGGUGGCGCGAUAGCGCCAACGUCCUCAACCUCCAAUGCAUCCCACCACAUGAUGAUGCCUGAAGAGCCUUGGUUUUUUG [U21C C22A A43C], the “polymerase ribozyme fitness (log ratio)” value was -4.05. With GACCAAUCUGCCCUCAGAGCCCGAGAACAUCUUCGGAUGCAGAGGAGGCAGGCUUCGGUGGCGCGAUAGCGCCAACGUCCUCAACCUCCAAUGCAUCCCAACACAUGAUGAUGCCUGAAGAGCCUUGGUUUUUUG [U21C C101A] the “polymerase ribozyme fitness (log ratio)” value was -0.445. In the case of GACCAAUCUGCCCUCAGAGCCCGAGAACAUCUUCGGAUGCAGAGGAGGCAGGCUUCGGUGGCGCGAUAGCGCCAACGUCCUCAACCUCCAAGGCAGCCCCCCACAUGAUGAUGCCUGAAGAGCGUUGGUUUUUUG [U21C U92G U96G A100C C124G], the “polymerase ribozyme fitness (log ratio)” value is reported as -5.43. In the case of GACCAAUCUGCCCUCAGAGCCAGAGAACAUCUUCGGAUGCAGAGGAGGCAGGCUUCGGUGGCGCGAUAGCGCCAACGUCCUCAACCUUCAAUGCAUCCCACCACAUGAUGAUGCCUGAAGAGCCUUGGUUUUUUG [U21C C22A C88U], the “polymerase ribozyme fitness (log ratio)” value is reported as -4.68. In the case of GACCAAUCUGCCCUCAGAGCCCGAGAACAUCUUCGGAUGCAGAGGAGGCAGGCUUCGGUGGCGCGAUAGCGCCAACGUCCUCAACCUCCAAUGCAUCCCACCACAUGAUGAUCCCUGAAGAGCCUUGGUUUUUUG [U21C G113C], the “polymerase ribozyme fitness (log ratio)” value is reported as -1.14. With GACCAAUCUGCCCUCAGAGCCAGAGAACAUCUUCGGAUGCAGAGGAGGCAGGCUUCGGUGGCGCGAUAGCGCCAACGUCCUCAACCUCCAAUGCAUCCCAGCACAUGAUAAUGCCUGAAGAGCCUUGGUUUUUUG [U21C C22A C101G G110A] the “polymerase ribozyme fitness (log ratio)” value was -6.05. For GACCAAUCUGCCCUCAGAGCCCGAGAAUAUCUUCGGAUGCAGAGGAGGCAGGCUUCGGUGGCGCGAUAGCGCCAACGUCCUCAACCUCCAAUGCAUCCCAGCACAUGAUCAUGCCUGAAGAGCCUUGGUUUUUUG [U21C C28U C101G G110C], the “polymerase ribozyme fitness (log ratio)” value was -5.65. In the case of GACCAAUCUGCCCUCAGAGCCCGAGAACAUCUUCGGAUGCAGAGGAGGCAGGCUUAGGUGGCGCGAUAGUGCCAACGUCCUCAACCUCCAAUGCAUCCCACCACAUGAUUAUGCCUGAAGAGCCUUGGUUUUUUG [U21C C56A C70U G110U], the “polymerase ribozyme fitness (log ratio)” value is reported as -6.01. For GACCAAUCUGCCCUCAGAGCCCGAGAACAUCUUCCGAUGCAGAGGAGGCAGGCUUCGGUGGCGCGAUAGCGCGAACGUCCUCCACCUCCAAUGCAUCCCACCACAUGAUGAUGCCUGAAGAGCCUUGGUUUUUUG [U21C G35C C73G A83C], the “polymerase ribozyme fitness (log ratio)” value was -5.87. With GACCAAUCUGCCCUCAGAGCCCGAGAAUAUCUUCGGAUGCAGAGGAGGCAGGCUUCGGUGGCGCGAUAGCGUCAACGUCCUCAACCUCCAAUGCAUCCCACCACAUGAUGAUGCCUGAAGAGCCUUGGUUUUUUG [U21C C28U C72U] the “polymerase ribozyme fitness (log ratio)” value was -1.89. In the case of GACCAAUCUGCCCUCAGAGCCCGAGAACAUCUUCGGAUGCAGAGGAGGCAGGCUUCGGUGGCGCGAUAGUGCCAACGUCCUCAACCUCCAAUGCAUCCCACCACAUGAUGAUGCCUGAAGAGCCUUGGUUUUUUG [U21C C70U], the “polymerase ribozyme fitness (log ratio)” value is reported as -0.476. For GACCAAUCUGCCCUCAGAGCCCGAGAACAUCUUCGGAUUCAGAGGAGGCAGGCUUUGGUGGCGCGAUAGCGCCAACGUCCUCAACCUCCAAUGCAUCCCAUCACAUGAUGAAGCCUGAAGAGCCUUGGUUUUUUG [U21C G39U C56U C101U U112A], the “polymerase ribozyme fitness (log ratio)” value was -0.219. With GACCAAUCUGCCCUCAGAGCCCGAGAACAUCUUCGGAUGCAGAGGAGGCAGGCUUCGGUGCCGCGAUAGCGCCAACGUCCUCAAACUCCAAUGCUUCCCACCACAUGAUGAUGCCUGAAGAGCCUUGGUUUUUUG [U21C G61C C85A A95U] the “polymerase ribozyme fitness (log ratio)” value was -4.53. For GACCAAUCUGCCCUCAGAGCCCGAGAACAUCUUCGGAUGCAAAGGAGGCAGGCUUCGGUGGCGCGAUAGCGCCAACGUCCUCAACCUCCAAUGCAUCCCACCACAUGAAGAUGCCUCAAGAGCCUUGGUUUUUUG [U21C G42A U109A G117C], the “polymerase ribozyme fitness (log ratio)” value was -7.38. In the case of GACCAAUCUGCCCUCAGAGCGCGGGAACAUCUUCGGAUGCAGAGGAGGCAGGCUUCGGUGGCGCGAUAGCGCCAACGUCCUCAACCUCCAAUGCAUCCCACCACAUGAUGAUGCCUGAAGAGCCUUGGUUUUUUG [U21G A24G], the “polymerase ribozyme fitness (log ratio)” value is reported as -2.02. For GACCAAUCUGCCCUCAGAGCCGGAGAACAUCUUAGGAUGCAGAGGAGGAAGGCUUCGGUGGCGCGAUAGCGCCAACGUCCUCAGCCUCCAAUGCAUCCCACCACAUGAUGAUGCCUGAAGAGUCGUGGUUUUCUG [U21C C22G C34A C49A A84G C123U U125G U133C], the “polymerase ribozyme fitness (log ratio)” value was -4.3. In the case of GACCAAUCUGCCCUCAGAGCCCGAGAACAUCUUCGGAUGCAGAGGAGGCAGGCAUCGGUGGCGAGAUAGCGCCAACGCCCUCAACCUCCAAUACAUCCCACCACAUGAUGCUGCCUGAAGAGCCUUGGUUUUUUG [U21C U54A C64A U78C G93A A111C], the “polymerase ribozyme fitness (log ratio)” value is reported as -6.03. In the case of GACCAAUCUGCCCUCAGAGCCCGAGAACAUCUUCGGAUGCAGAGGAGGCAGGCUGCGGGGGCGCGAUAGCUCCAACGUCCUCAACCUCCAAUGCAUCCCACCACAUGAUGAUGCGUGAAGAGCCUUGGUUUUUUG [U21C U55G U59G G71U C115G], the “polymerase ribozyme fitness (log ratio)” value is reported as -4.57. In the case of GACCAAUCUGCCCUCAGAGCCCGAGAACAUCUUCGGAUGCAGAGGAGGCAGGCUUCGGUGGCGCGAUAGCGCCAACGUCCUCAACCUCCAAUGCAGCCCACCACAUGAUGAUGUCUGAAGAGCCUUGGUUUUUUG [U21C U96G C114U], the “polymerase ribozyme fitness (log ratio)” value is reported as -1.48.
